Source: PMC11111636 (EJNMMI Radiopharmacy and Chemistry, 2024)

Tests used:
[1] = In vitro stability in PBS (radio-HPLC); format: physicochemical; details: 37 °C; for PBS (%) intact labeled ligand: n = 1
[2] = system: H69-xenograft Balb/c nu/nu mice; assay: Ex vivo biodistribution in H69-tumor bearing mice; details: for Tumor uptake lower than the tumor uptake of [111In]In-DOTA-TATE: P < 0.05
Protocol: (§1) Six-week‐old female Balb/c nu/nu‐specific mice (Janvier Labs, Le Genest‐Saint‐Isle, France) were housed in individually ventilated cages (4 mice/cage). Upon arrival, mice were acclimated for one week, with access to food and water ad libitum. Mice were subcutaneously inoculated on the right shoulder with NCI-H69 cells (5 × 10^6 cells) suspended in 100 μL of 1/3 Matrigel (Corning Inc.; Corning, NY, USA) and 2/3 Hank’s balanced salt solution (Gibco; Paisley, UK). NCI-H69 xenografts were allowed to grow for 2 weeks.
(§2) At 3 selected time points (1, 4 and 24 h; n = 4) p.i., blood was collected via retro-orbital puncture under isoflurane/O2 anesthesia, after which the mice were sacrificed via cervical dislocation. The tumor and organs of interest (heart, lungs, liver, spleen, stomach, large intestine, small intestine, pancreas, kidneys, muscle, skin, bone) were excised, washed in PBS and blotted dry. […] To determine the total injected radioactivity per animal, a calibration curve with indium-111 was established using the gamma counter. The percentage of injected dose per gram (% ID/g) was determined for each tissue and corrected for both the injected activity and % ID present at the injection site (the tail). Then, the tumor and the organs were placed in a petri dish and ex vivo optical imaging was performed with the IVIS Spectrum system (Perkin Elmer, Waltham, MA, USA) using the following settings for all measurements: FOV 19.5 cm, medium binning, f2, 60 s exposure with an excitation/emission filter of 646 nm/662 nm. Living Image version 4.5.2 software (Perkin Elmer) was used to perform data analysis by drawing regions of interest around the organ/tissue to quantify the radiant efficiency {(photons/second/cm^2/steradian)/(μW/cm^2)}.

[3] = Ex vivo biodistribution in H69-tumor bearing mice; details: mouse, in vivo; for tissue uptake at 4 h / tissue uptake at 1 h / tissue uptake at 24 h: n = 4; for tissue uptake at 1 h: 1 h p.i.; for tissue uptake at 24 h: 24 h p.i.
Protocol: as §1, §2

in vitro = details: mouse, mouse serum, Mouse serum (%) intact labeled ligand, 37 °C, n = 1
Protocol: Stability of the radiolabeled peptide was monitored at 1, 4 and 24 h post incubation. The samples in PBS were directly analyzed by radio-HPLC without any pretreatment. However, samples in mouse serum were mixed with an equal volume of acetonitrile to precipitate the proteins. The solution was centrifuged for 10 min at 13,000 rpm and the supernatant was analyzed by radio-HPLC.

U2OS.SSTR2 cells = assay: Uptake/internalization studies in U2OS.SSTR2 cells; format: cell-based, human
Protocol: Cells were seeded in 6-well plates 24 h before the experiment (7 × 10^5 cells/well). […] The membrane-bound fraction was collected by incubating cells with an acid buffer (50 mM glycine, 100 mM NaCl, pH 2.8) for 10 min at rt. The internalized fraction was determined by lysing the cells with 1 M NaOH for 5 min at rt. Both fractions were measured in a gamma counter, and data were analyzed in GraphPad Prism v9 and expressed as percentage of added dose.

[4] = Protocol: Distribution coefficient was determined by a shake-flask method. […] The vial was vortexed vigorously and then centrifuged at 10,000 rpm for 10 min for phase separation. Samples (100 μL) of the n-octanol and aqueous phases were taken and measured in the gamma counter. LogD7.4 value was calculated by using the following equation: LogD7.4 = log [(counts in n-octanol phase)/(counts in aqueous phase)]. Measurements were performed in triplicates.
[5] = iv, 2 nmol, Uptake in Intestines

C[C@@H](O)[C@H](NC(=O)[C@@H]1CSSC[C@H](NC(=O)[C@@H](Cc2ccccc2)NC(=O)CCC(C(=O)O)N2CCN(CC(=O)O)CCN(Cc3cccc(COCCCn4nnc5c4-c4ccccc4N(C(=O)CCCCCNC(=O)CCCCC[N+]4=C(C=CC=CC=C6N(C)c7ccc(S(=O)(=O)[O-])cc7C6(C)C)C(C)(C)c6cc(S(=O)(=O)O)ccc64)Cc4ccccc4-5)n3)CCN(CC(=O)O)CC2)C(=O)N[C@@H](Cc2ccc(O)cc2)C(=O)N[C@H](Cc2c[nH]c3ccccc23)C(=O)N[C@@H](CCCCN)C(=O)N[C@@H]([C@@H](C)O)C(=O)N1)C(=O)O (some centres unmarked) [[^111In]In-eTFC-01, metal not drawn]
Degradation in PBS buffer ([1]; up to 24 h): No degradation
PBS (%) intact labeled ligand ([1]; 1 h): 99.0%
PBS (%) intact labeled ligand ([1]; 4 h): 99.0%
PBS (%) intact labeled ligand ([1]; 24 h): 99.0%
Tumor uptake lower than the tumor uptake of [111In]In-DOTA-TATE ([2]; 1 h p.i.): 54%
Tumor uptake reduction by co-injection of an excess of DOTA-TATE ([2]; 4 h p.i., compared to the unblocked group): 40%
Tumor uptake lower than the tumor uptake of [111In]In-DOTA-TATE ([2]; 24 h p.i.): 31%
tissue uptake ([3]; 2 nmol, Tumor uptake, from 1 h to 24 h post injection): 2 to 3 %ID/g
tissue uptake at 4 h ([3]; Uptake in Blood, 4 h block (co-injected 50 nmol DOTA-TATE)): 4.11 ± 0.16 %ID/g
tissue uptake at 4 h ([3]; Uptake in Bones, 4 h block (co-injected 50 nmol DOTA-TATE)): 1.53 ± 0.27 %ID/g
tissue uptake at 4 h ([3]; Uptake in Heart, 4 h block (co-injected 50 nmol DOTA-TATE)): 2.14 ± 0.46 %ID/g
tissue uptake at 4 h ([3]; Uptake in Intestines, 4 h block (co-injected 50 nmol DOTA-TATE)): 1.48 ± 0.13 %ID/g
tissue uptake at 4 h ([3]; Uptake in Kidneys, 4 h block (co-injected 50 nmol DOTA-TATE)): 46.6 ± 6.34 %ID/g
tissue uptake at 4 h ([3]; Uptake in Liver, 4 h block (co-injected 50 nmol DOTA-TATE)): 10.6 ± 1.55 %ID/g
tissue uptake at 4 h ([3]; Uptake in Lungs, 4 h block (co-injected 50 nmol DOTA-TATE)): 6.05 ± 0.59 %ID/g
tissue uptake at 4 h ([3]; Uptake in Muscle, 4 h block (co-injected 50 nmol DOTA-TATE)): 0.67 ± 0.08 %ID/g
tissue uptake at 4 h ([3]; Uptake in Pancreas, 4 h block (co-injected 50 nmol DOTA-TATE)): 0.95 ± 0.23 %ID/g
tissue uptake at 4 h ([3]; Uptake in Skin, 4 h block (co-injected 50 nmol DOTA-TATE)): 3.61 ± 0.4 %ID/g
tissue uptake at 4 h ([3]; Uptake in Spleen, 4 h block (co-injected 50 nmol DOTA-TATE)): 3.97 ± 0.9 %ID/g
tissue uptake at 4 h ([3]; Uptake in Stomach, 4 h block (co-injected 50 nmol DOTA-TATE)): 0.43 ± 0.12 %ID/g
tissue uptake at 4 h ([3]; Uptake in Tumor, 4 h block (co-injected 50 nmol DOTA-TATE)): 1.81 ± 0.14 %ID/g
tissue uptake at 1 h ([3]; iv, 2 nmol, Uptake in Blood): 6.96 ± 0.68 %ID/g
tissue uptake at 4 h ([3]; iv, 2 nmol, Uptake in Blood, 4 h p.i.): 4.7 ± 0.24 %ID/g
tissue uptake at 24 h ([3]; iv, 2 nmol, Uptake in Blood): 0.64 ± 0.11 %ID/g
tissue uptake at 1 h ([3]; iv, 2 nmol, Uptake in Bones): 2.29 ± 0.17 %ID/g
tissue uptake at 4 h ([3]; iv, 2 nmol, Uptake in Bones, 4 h p.i.): 1.7 ± 0.23 %ID/g
tissue uptake at 24 h ([3]; iv, 2 nmol, Uptake in Bones): 0.98 ± 0.21 %ID/g
tissue uptake at 1 h ([3]; iv, 2 nmol, Uptake in Heart): 4.14 ± 0.76 %ID/g
tissue uptake at 4 h ([3]; iv, 2 nmol, Uptake in Heart, 4 h p.i.): 2.5 ± 0.17 %ID/g
tissue uptake at 24 h ([3]; iv, 2 nmol, Uptake in Heart): 0.74 ± 0.12 %ID/g
tissue uptake at 1 h [3, 5]: 1.85 ± 0.24 %ID/g
tissue uptake at 4 h ([3]; iv, 2 nmol, Uptake in Intestines, 4 h p.i.): 1.85 ± 0.24 %ID/g
tissue uptake at 24 h [3, 5]: 0.44 ± 0.09 %ID/g
tissue uptake at 1 h ([3]; iv, 2 nmol, Uptake in Kidneys): 33.2 ± 3.27 %ID/g
tissue uptake at 4 h ([3]; iv, 2 nmol, Uptake in Kidneys, 4 h p.i.): 36.6 ± 2.02 %ID/g
tissue uptake at 24 h ([3]; iv, 2 nmol, Uptake in Kidneys): 30.6 ± 5.9 %ID/g
tissue uptake at 1 h ([3]; iv, 2 nmol, Uptake in Liver): 8.88 ± 0.9 %ID/g
tissue uptake at 24 h ([3]; iv, 2 nmol, Uptake in Liver): 6.03 ± 1.14 %ID/g
tissue uptake at 1 h ([3]; iv, 2 nmol, Uptake in Lungs): 8.07 ± 1.18 %ID/g
tissue uptake at 4 h ([3]; iv, 2 nmol, Uptake in Lungs, 4 h p.i.): 7.71 ± 0.87 %ID/g
tissue uptake at 24 h ([3]; iv, 2 nmol, Uptake in Lungs): 1.75 ± 0.19 %ID/g
tissue uptake at 1 h ([3]; iv, 2 nmol, Uptake in Muscle): 1.07 ± 0.1 %ID/g
tissue uptake at 4 h ([3]; iv, 2 nmol, Uptake in Muscle, 4 h p.i.): 0.73 ± 0.08 %ID/g
tissue uptake at 24 h ([3]; iv, 2 nmol, Uptake in Muscle): 0.26 ± 0.05 %ID/g
tissue uptake at 1 h ([3]; iv, 2 nmol, Uptake in Pancreas): 1.99 ± 0.26 %ID/g
tissue uptake at 4 h ([3]; iv, 2 nmol, Uptake in Pancreas, 4 h p.i.): 1.28 ± 0.17 %ID/g
tissue uptake at 24 h ([3]; iv, 2 nmol, Uptake in Pancreas): 0.64 ± 0.18 %ID/g
tissue uptake at 1 h ([3]; iv, 2 nmol, Uptake in Skin): 5.73 ± 1.28 %ID/g
tissue uptake at 4 h ([3]; iv, 2 nmol, Uptake in Skin, 4 h p.i.): 3.78 ± 0.35 %ID/g
tissue uptake at 24 h ([3]; iv, 2 nmol, Uptake in Skin): 1.54 ± 0.35 %ID/g
tissue uptake at 1 h ([3]; iv, 2 nmol, Uptake in Spleen): 5.09 ± 0.72 %ID/g
tissue uptake at 4 h ([3]; iv, 2 nmol, Uptake in Spleen, 4 h p.i.): 3.58 ± 1.02 %ID/g
tissue uptake at 24 h ([3]; iv, 2 nmol, Uptake in Spleen): 2.03 ± 0.43 %ID/g
tissue uptake at 1 h ([3]; iv, 2 nmol, Uptake in Stomach): 2.66 ± 0.49 %ID/g
tissue uptake at 4 h ([3]; iv, 2 nmol, Uptake in Stomach, 4 h p.i.): 1.41 ± 0.19 %ID/g
tissue uptake at 24 h ([3]; iv, 2 nmol, Uptake in Stomach): 0.77 ± 0.22 %ID/g
tissue uptake at 1 h ([3]; iv, 2 nmol, Uptake in Tumor): 2.56 ± 0.38 %ID/g
tissue uptake at 4 h ([3]; iv, 2 nmol, Uptake in Tumor, 4 h p.i.): 3.04 ± 0.49 %ID/g
tissue uptake at 24 h ([3]; iv, 2 nmol, Uptake in Tumor): 2.21 ± 0.31 %ID/g
remaining at 1 h (in vitro; 1 h): 97.9%
remaining at 4 h (in vitro; 4 h): 86%
remaining at 24 h (in vitro; 24 h): 71%
Internalized fraction of radioactivity (U2OS.SSTR2 cells; 10^-9 M, 90 min, 37 °C): 97%
Total uptake (U2OS.SSTR2 cells; 10^-9 M, 90 min, 37 °C, % of added dose per 1,000,000 cells, n = 3): 20.87 ± 1.92 % AD
Cell uptake with excess of unlabeled DOTA-TATE (U2OS.SSTR2 cells; 50-fold excess DOTA-TATE): almost completely blocked
Drop of the cell uptake in presence of an excess of DOTA-TATE (U2OS.SSTR2 cells; 50-fold excess DOTA-TATE): 95%
LogD7.4 ([4]; n-octanol/PBS pH 7.4, n = 3): negative
logD ([4]; pH 7.4): -0.7 ± 0.06
